Where a chain is given by its changes, count along the chain named.

The text below walks through data of US20260232824A1 (CHAMPIONS ONCOLOGY, published 2026).

The target in experiment [1] is T1, human MD-1 on HEK293 cells (human, UniProt O95711 21-162).
T1 construct: whole, on cells; also called HEK293 expressing MD-1 only; MD-1 cells
T1 sequence (looked up): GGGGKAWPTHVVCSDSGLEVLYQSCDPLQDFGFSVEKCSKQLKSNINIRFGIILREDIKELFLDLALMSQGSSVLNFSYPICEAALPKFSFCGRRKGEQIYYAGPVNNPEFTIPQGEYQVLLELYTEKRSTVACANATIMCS
Put plainly: cell binding screen by flow cytometry (called cell-based ELISA), HEK293 expressing MD-1 only. Here is the method: (§1) FIGS. 1A-IC show the cell binding properties of the anti-CD180 antibodies. All CHAMP mAbs were subjected to binding assays via cell-based ELISA. FIG. 1A: Antibodies were screened at […] and 30 nM in a cell-based ELISA using HEK293 expressing CD180/MD-1. […] P84, mouse IgG, and 2nd only mouse were negative controls. […] FIG. 1B: Antibodies were screened at […] in cell-based ELISA using HEK293 expressing MD-1 only. […] FIG. 1C: Antibodies were screened at […] in cell-based ELISA using HEK293 parental cell line.
(§2) All mAbs were subjected to cell binding screen detected on a flow cytometer. Engineered cells expressing CD180/MD-1, MD-1, or parental HEK cells were used to test for binding of the antibodies. Antibodies at a concentration of 100 nM or 30 nM were incubated with cells at 4° C. for 45 min. R-Phycoerythrin AffiniPure Goat Anti-Human IgG (Jackson Immunoresearch 109-115-098) was used as the secondary antibody. The binding of antibodies on cells were detected on Intellicyt iQue3 VBR.

In experiment [2] the target is T2, human CD180/human MD-1 on HEK293 cells (human, UniProt Q99467 24-661; O95711 21-162).
T2 construct: whole, on cells; Complex co-expressed on HEK293 cells; also called HEK293 expressing CD180/MD-1; HEK293 CD180/MD-1 cells
T2 sequence (looked up) 1: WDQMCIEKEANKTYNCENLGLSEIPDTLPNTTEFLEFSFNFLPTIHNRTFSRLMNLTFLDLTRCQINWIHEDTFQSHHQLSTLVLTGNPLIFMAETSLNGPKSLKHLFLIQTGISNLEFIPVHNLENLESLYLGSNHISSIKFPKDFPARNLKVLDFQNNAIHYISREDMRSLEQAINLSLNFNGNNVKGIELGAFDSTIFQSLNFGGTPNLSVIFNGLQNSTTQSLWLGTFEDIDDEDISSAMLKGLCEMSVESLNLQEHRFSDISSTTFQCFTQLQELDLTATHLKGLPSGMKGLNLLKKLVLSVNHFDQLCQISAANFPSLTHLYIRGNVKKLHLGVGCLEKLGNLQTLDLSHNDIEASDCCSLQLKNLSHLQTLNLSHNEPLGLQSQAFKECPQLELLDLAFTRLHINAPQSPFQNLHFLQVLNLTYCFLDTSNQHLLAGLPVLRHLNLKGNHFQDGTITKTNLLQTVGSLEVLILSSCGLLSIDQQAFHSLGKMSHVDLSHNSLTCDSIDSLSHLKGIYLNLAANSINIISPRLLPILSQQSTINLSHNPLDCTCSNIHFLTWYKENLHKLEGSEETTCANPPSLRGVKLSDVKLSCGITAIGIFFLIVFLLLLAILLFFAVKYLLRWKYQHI
T2 sequence (looked up) 2: T1 sequence (looked up)
Briefly: cell-based ELISA / flow cytometry, HEK293 expressing CD180/MD-1, 100 nM and 30 nM. Here is the method:
as §1, §2

Experiment [3] concerns the target T2, human CD180/human MD-1 on HEK293 cells. Put plainly: cell binding on HEK293 CD180/MD-1 cells (FIG. 14G). Here is the method: Cells were then incubated with the secondary antibody R-Phycoerythrin AffiniPure Goat Anti-Human IgG (Jackson Immunoresearch 109-115-098). The data was acquired on Intellicyt iQue3 VBR. Median fluorescence intensities (MFI) were plotted against the concentrations of the anti-CD180 antibodies.

The target is the same in experiment [4]. Briefly: cell binding screen by flow cytometry, cells expressing CD180/MD-1, 100 nM or 30 nM. As for the experimental part:
as §1, §2

For experiment [5], the target named is T3, human CD180 extracellular domain (ECD) HIS-tagged protein (Creative Biomart, CD180-3900H) (human, UniProt Q99467 24-626).
T3 construct: extracellular domain; Bought protein; also called soluble human CD180 from Creative Biomart; not shown: His tag
T3 sequence (looked up): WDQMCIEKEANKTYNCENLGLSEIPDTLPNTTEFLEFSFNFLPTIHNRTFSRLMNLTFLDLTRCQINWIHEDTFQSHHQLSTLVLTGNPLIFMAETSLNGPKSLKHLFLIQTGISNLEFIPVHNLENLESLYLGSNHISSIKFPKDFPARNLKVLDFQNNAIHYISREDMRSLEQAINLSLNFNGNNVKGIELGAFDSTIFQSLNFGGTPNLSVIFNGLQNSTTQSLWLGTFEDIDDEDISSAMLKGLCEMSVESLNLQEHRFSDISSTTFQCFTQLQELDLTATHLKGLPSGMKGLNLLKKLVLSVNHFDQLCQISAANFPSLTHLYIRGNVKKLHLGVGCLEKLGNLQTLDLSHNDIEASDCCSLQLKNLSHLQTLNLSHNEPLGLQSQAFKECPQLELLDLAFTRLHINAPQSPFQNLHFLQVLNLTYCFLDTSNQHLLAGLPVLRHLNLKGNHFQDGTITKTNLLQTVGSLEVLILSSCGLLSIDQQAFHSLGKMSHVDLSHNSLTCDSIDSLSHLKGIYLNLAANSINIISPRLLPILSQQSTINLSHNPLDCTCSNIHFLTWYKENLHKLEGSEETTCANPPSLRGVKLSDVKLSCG
Put plainly: SPR, antibody captured in a bivalent format, soluble human CD180 from Creative Biomart passed over (FIG. 3B). Here is the method:
(§3) FIGS. 3A-3C show intrinsic binding affinity of the antibodies as determined by Surface Plasmon Resonance (SPR) assay. Antibody was captured in a bivalent format and soluble human CD180 from Sino Biologics (FIG. 3A), Creative Biomart (FIG. 3B), or soluble rhesus CD180 (FIG. 3C) was passed over the captured antibody. […] Kon, koff and KD are indicated for each condition.
(§4) Surface Plasmon Resonance (SPR) was used to identify intrinsic binding affinity. Kinetic experiments were performed on Carterra LSA with a running buffer of PBS pH 7.40, 1% BSA, 0.05% Tween20. Antibodies were captured on an anti-human Fc capture chip prepared with a HC30M chip. […] For each concentration, there was 5 min association followed by 15 min dissociation. Results were processed and analyzed in Carterra LSA Kinetics Software. The kinetic data was referenced with the interstitial reference spots and double-referenced to a buffer cycle, and then fit globally to a 1:1 binding model to determine their apparent association and dissociation kinetic rate constants (kₒₙ and koff values). The ratio koff/kₒₙ was used to derive the KD value of each antigen/mAb interaction, i.e., KD=koff/kₒₙ.

Experiment [6] addresses T4, human CD180 extracellular domain (ECD) HIS-tagged protein (Sino Biological, 11370-H08H) (human, UniProt Q99467 24-626).
T4 construct: extracellular domain; Bought protein; also called soluble human CD180 from Sino Biologics; human CD180(ECD)-HIS; not shown: His tag
T4 sequence (looked up): T3 sequence (looked up)
Briefly: SPR, antibody captured in a bivalent format, soluble human CD180 from Sino Biologics passed over (FIG. 3A). Here is the method:
as §3, §4

B1: Ab-008 (antibody, human IgG1, kappa, V domains shown)
VH: EVQLVESGGGLVQPGRSLRLSCTTSGFTFADYAMHWVRQTPGQGLEWVSGISWNGGTMGYADSVKGRFTISRDIAKNSLYLQMNSLRAEDTALYYCAKDIAYSRGYFQHWGQGTLVTVSS
VL: DIQMTQSPSSLSASVGDRVTITCRASQGIRNDLGWYQQKPGKAPKLLIYAASTLQSGVPSRFSGSGSGTDFTLTISSLQPEDVATYYCQKYNSAPFTFGPGTKVDIKR
On to B1, for which the binding result in experiment [1] was “no binding (tested: 100 nM)”; in experiment [2], “binds”.

B2: Ab-009 (antibody, human IgG1, kappa, V domains shown)
VH: B1 VH with Q43K, G56V, M58I, G59D
VL: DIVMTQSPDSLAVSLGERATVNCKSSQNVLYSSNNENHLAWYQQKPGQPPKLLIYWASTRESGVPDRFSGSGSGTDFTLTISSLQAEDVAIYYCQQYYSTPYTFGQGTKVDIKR
Turning to B2, in experiment [1], the binding result is “no binding (tested: 100 nM)”.

B3: Ab-012 (antibody, human IgG1, kappa, V domains shown)
VH: B1 VH
VL: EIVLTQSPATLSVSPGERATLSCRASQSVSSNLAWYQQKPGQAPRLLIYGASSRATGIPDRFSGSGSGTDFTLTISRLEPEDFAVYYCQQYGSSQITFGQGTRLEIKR
As to B3, the binding result in experiment [1] was “no binding (tested: 100 nM)”; in experiment [2] it was “binds”.

B4: Ab-016 (antibody, human IgG1, kappa, V domains shown)
VH: B1 VH with Q43K, M58I
VL: not shown
For the molecule B4, the binding result in experiment [1] was “no binding (tested: 100 nM)”; in experiment [2], “binds”.

B5: Ab-014 (antibody, human IgG1, kappa, V domains shown)
VH: B1 VH with Q43K, G56V, M58I, G59D
VL: not shown
notes: also called CHAMPmAB-014
B5: the binding result in experiment [1] is “no binding (tested: 100 nM)”. Also, in experiment [3], the EC50 worked out at 4 nM.

B6: Ab-017 (antibody, human IgG1, kappa, V domains shown)
VH: B1 VH
VL: not shown
For the molecule B6, the binding result in experiment [1] is “no binding (tested: 100 nM)”; in experiment [2] it was “binds”.

B7: Ab-005 (antibody, human IgG1, kappa, V domains shown)
VH: B1 VH with R16G, Q43K, M58I
VL: not shown
Turning to B7, the binding result was “no binding (tested: 100 nM)” in experiment [1] and “binds” in experiment [4].

B8: Ab-010 (antibody, human IgG1, kappa, V domains shown)
VH: B1 VH with R16G, T24S, Q43K, M58F, G59D, A88V
VL: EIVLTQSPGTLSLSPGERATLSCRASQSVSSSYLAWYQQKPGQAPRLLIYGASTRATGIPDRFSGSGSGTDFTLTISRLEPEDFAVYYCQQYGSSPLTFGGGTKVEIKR
Consider B8, for which the figures for the binding result in experiment [1] and in experiment [2] were “no binding (tested: 100 nM)” and “binds”, respectively.

B9: Ab-004 (antibody, human IgG1, kappa, V domains shown)
VH: B1 VH with R16G, Q43K, G56V, M58I, G59D
VL: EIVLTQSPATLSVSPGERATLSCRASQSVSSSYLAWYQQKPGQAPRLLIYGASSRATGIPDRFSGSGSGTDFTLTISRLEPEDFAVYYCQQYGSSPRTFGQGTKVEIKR
notes: also called CHAMPmAB-004
Regarding B9, the binding result in experiment [1] was “no binding (tested: 100 nM)”; in experiment [4], “binds”.

B10: Ab-003 (antibody, human IgG1, kappa, V domains shown)
VH: B1 VH
VL: not shown
B10: the figures for the binding result in experiment [1] and in experiment [4] were “no binding (tested: 100 nM)” and “binds”, respectively.

B11: Ab-007 (antibody, human IgG1, kappa, V domains shown)
VH: EVQLVESGGGVVRPGGSLRLSCAASGFTFDDYAMSWVRQAPGKGLEWVSDINWNGGTTSYADSVKGRFTISRDNAKNSLFLQMNSLRAEDTALYYCARKGRDTVVVKGYYYFSYYMDVWGKGSTVTVSS
VL: not shown
notes: also called ChampmAb-007; Champ mAb-007
In the case of B11, the binding result in experiment [1] is recorded as “no binding (tested: 100 nM)”; in experiment [5], “binds”; in experiment [6], “binds”; in experiment [2], “binds”.

B12: Ab-006 (antibody, human IgG1, kappa, V domains shown)
VH: EVQLVESGGGLVKPGGSLRLSCTASGFTFDDYDMTWVRQAPGKGLEWVSGINWNGGNTDYADSVKGRFTISRDNTKNSLYLQMNSLRAEDTALYYCARKGRDIVVVKGFYYHYYYMDVWGKGITVTVSS
VL: not shown
notes: also called ChampmAb-006; Champ mAb-006
Turning to B12, the binding result in experiment [1] is recorded as “no binding (tested: 100 nM)”; in experiment [5], “binds”; in experiment [6], “binds”; in experiment [4] it was “binds”.

B13: Ab-002 (antibody, human IgG1, kappa, V domains shown)
VH: EVQLVESGGGLVQPGGSLRLSCAASGFTSVDYAMHWVRQAPGKGLEWVSYISWNNNNIGYADSVKGRFTISRDNAKNSLYLHMSSLRAEDTALYYCAKDIAYNTGYFDYWGQGTLVTVSS
VL: not shown
Regarding B13, the binding result is on record as “no binding (tested: 100 nM)” in experiment [1] and “binds” in experiment [4].
